One may read the stoichiometry N as the number of molecules, sites or subunits per partner or assembly.

The data set concerns the molecule itself. Description: SEC-MALS. (In general: In gel filtration, larger molecules generally elute earlier.)

B1: ribose repressor (RbsR) (natural protein, E. coli, UniProt P0ACQ0 1-330, looked up)
chain: MATMKDVARLAGVSTSTVSHVINKDRFVSEAITAKVEAAIKELNYAPSALARSLKLNQTHTIGMLITASTNPFYSELVRGVERSCFERGYSLVLCNTEGDEQRMNRNLETLMQKRVDGLLLLCTETHQPSREIMQRYPTVPTVMMDWAPFDGDSDLIQDNSLLGGDLATQYLIDKGHTRIACITGPLDKTPARLRLEGYRAAMKRAGLNIPDGYEVTGDFEFNGGFDAMRQLLSHPLRPQAVFTGNDAMAVGVYQALYQAELQVPQDIAVIGYDDIELASFMTPPLTTIHQPKDELGELAIDVLIHRITQPTLQQQRLQLTPILMERGSA
As for B1, the “stoichiometry N” value stood at 2.

B2: lac repressor (LacI), functional dimeric form (residues 1-331) (domain or fragment, E. coli, UniProt P03023 1-331, looked up)
chain: MKPVTLYDVAEYAGVSYQTVSRVVNQASHVSAKTREKVEAAMAELNYIPNRVAQQLAGKQSLLIGVATSSLALHAPSQIVAAIKSRADQLGASVVVSMVERSGVEACKAAVHNLLAQRVSGLIINYPLDDQDAIAVEAACTNVPALFLDVSDQTPINSIIFSHEDGTRLGVEHLVALGHQQIALLAGPLSSVSARLRLAGWHKYLTRNQIQPIAEREGDWSAMSGFQQTMQMLNEGIVPTAMLVANDQMALGAMRAITESGLRVGADISVVGYDDTEDSSCYIPPLTTIKQDFRLLGQTSVDRLLQLSQGQAVKGNQLLPVSLVKRKTTLA
For the protein B2, the “stoichiometry N” value was determined as 2.
